# Reference: US20150086555A1 (THERACLONE SCIENCES, published 2015)
# B1: TCN-553 (5261_C18) (antibody, V domains shown)
# VH: QVQVVQSGTEVKKPGSSVKVSCQTSGGRFMSYAITWVRQAPGQGLEWMGGIVPVFGTANYAQKFQGRVTITTDDSTRTAYMELSSLRSEDTAVYYCGFRYGSGYGFDSWGQGTLVTVSS
# VL: EIVLTQSPGTLSLSPGERATLSCRASQSVSSSYLAWYQKKPGQAPRLLIYGASTRATGIPDRFTGSGSGTDFTLSISRLEPEDFAVYYCQHFGTSVFTFGGGTKVEIK
# B2: TCN-546 (5089_L08) (antibody, V domains shown)
# VH: QVQLQQWGAGLLKPSETLSLTCGVYGGSLSDYYWSWIRQPPGKGLEWIGEINHSGGTNYNPSLKRRVTISVDTSKKQFSLKMNSVTAADTAVYYCARGTDPDTEVYCRAGNCAAFDFWGQGTLVTVSS
# VL: EIVLTQSPGTLSLSPGERATLSCRASHFVIGRAVAWYQQKPGQAPRLLIYGASSRATGIPDRFSGSGSGTDFTLTISRLETEDFAVFYCQHYGSSPRYAFGQGTKLEIK
# B3: TCN-556 (5089_K12) (antibody, V domains shown)
# VH: QVQLVQSGAEVKKPGASVKVSCKASGYTFIGYDMHWVRQAPGQGLEWMGWINAKRGGTNYAQKFQGRVTMTRDTSISTAYMELNSLRSDDTAVYYCARGVGSRTTIFGVLNPEFDYWGQGTLVTVSS
# VL: QSALTQPPSASGSPGQSVTISCTGSSSDVGGYDYVSWYQQHPGKAPKLLIYEVTKRPSGVPDRFSGSKSGNTASLTVSGLQAEDEADYYCSSYAGNYNHVFGPGTKVTVL
# B4: TCN-540 (5060_F05) (antibody, V domains shown)
# VH: QVQLVQSGGGVVQPGRSLRLSCAASGFTFSSYAMHWVRQAPGKGLEWVAIISYDGNDQYYTDSVKGRFTISRDSSKVYLQMHRLRPEDTAVYYCAKEFETSGYFHGSFDYWGQGILVTVSS
# VL: QSALTQPASVSGSPGQSITISCTGTSSDVGGYNYVSWYQQHPGKAPKLLIYEVTNWPSGVSNRFSGSKSGNTASLTISGLQAEDEADYYCSSYAGSSTWVFGGGTRVTVL
# B5: TCN-550 (5096_F06) (antibody, V domains shown)
# VH: QVQLQESGPGLVKPSETLSLTCTVSGASINSHYWSWIRQPPGKGLEWIGYVYYSGSTTYNPSLKSRVTLSVDTSKNQFSLNLSSVTAADTAFYYCARHPYDVLTGSGDWFDPWGQGTLVTVSS
# VL: SYVLTQAPSVSVAPGQTARITCGGNAIGSKKVHWYQHKAGQAPVLVVYDDTDRPSGIPERFSGSNSWSTATLTINRVEAGDEADYYCQVWDFTIDHVVFGGGTKLTVL
# B6: TCN-542 (5079_A16) (antibody, V domains shown)
# VH: QVQLQESGPGLVKPSQTLSLTCTVSGGSISSGNYYWNWVRQHPGKGLEWIGYIYYRGSTFYNPSLKSRVTISIDTSKNQFSLRLSSVTAADTAVYYCAKDTRSSLDNYQYGMDVWGQGTTVTVSS
# VL: QTVVTQEPSLTVSPGGTVTLTCASSTGAVTSSYFPNWFQQKPGQAPRPLIYSTTIRHSWTPARFSGSLLGGKAALTLSGVQPEDEADYYCLLYSGGDPVAFGGGTKLTVL
# B7: TCN-544 (5082_A19) (antibody, V domains shown)
# VH: QVQLQESGPGLVKPSETLSLTCTVSRGSIGHYFWSWIRQPPGKGLEWIGYISYSGSTKYNPSLRSRVTISVDTSKNQFSLNLNSVTATDTALYYCAREDYDILTGAGPGMEVWGQGTTVTVSS
# VL: QSMLTQPPSASGTPGQRVTISCSGSSSNIGSNTVNWFKHLPGTAPKLLIYRNDLRPSGVPDRFSGSKSGTSASLAISGLQSEDEADYYCATWDDSLNGFYVFGTGTKVTVL
# B8: TCN-543 (5081_G23) (antibody, V domains shown)
# VH: QVHLVQSGAEVRKPGDSVKVSCKTSGYTFSTYPVAWVRQVPGQGLEWMGWISTYNGNTNFAQNFQGRVTLTTDTTTNTAYMEVRSLKFDDTAVYYCARVEGSYRDFWNNQNRFDPWGQGTLVTVSS
# VL: SYVLTQPPSVSVAPGQTARISCGGSNIGGKSVHWYQQKPGQAPVLVVYDDSGRPSGIPERFSGSNSGDTATLTISRVEAGDEADYFCQVWDNFGGVFGTGTKVTVL
# B9: TCN-548 (5092_P01) (antibody, V domains shown)
# VH: QVQLQESGPGLVKPSETLSLTCTVSSGPMSDYYWSWIRQPPGKGLEWIGHVSVSHGGRTKSNPSVMSRVTISVETSKNQFSLKLTSVTAADTAVYYCARLNYYDRSGYHSPDGPSNNWFDPWGQGTLVTVSS
# VL: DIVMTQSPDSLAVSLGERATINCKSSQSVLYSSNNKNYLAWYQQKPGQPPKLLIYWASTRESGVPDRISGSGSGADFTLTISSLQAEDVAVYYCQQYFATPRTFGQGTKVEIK
# B10: TCN-549 (5092_P04) (antibody, V domains shown)
# VH: QVQLVQSGAEVKKPGASVKVSCKASGYTFTGYYMHWVRQAPGQGLEWMGWINPNSGDTNYAQKFQGRVTMTRDTSITTAYMELSSLRSDDTAVYYCARDSPYSSSWSFFDYWGQGPLVTVSS
# VL: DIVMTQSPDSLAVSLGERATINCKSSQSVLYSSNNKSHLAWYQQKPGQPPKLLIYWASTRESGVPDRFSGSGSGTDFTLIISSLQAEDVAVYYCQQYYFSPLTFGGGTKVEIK
# B11: TCN-547 (5092_F11) (antibody, V domains shown)
# VH: QVQLQESGPGLVKPSQTLSLTCTVSGDSISSVDHYWSWIRQHPVKGLEWIGFMYYSASTYYNPSLKSRVTISTDTSKNQFSLRLSSVTAADTAVYYCARGTCAGDCSLHYYYYGLDVWGQGRTVTVSS
# VL: DIQMTQSPSSLSASVGDRVTITCRASQSISSYLNWYQHKPGKAPKVLMYAVSILQSGVPSRFSGSGSGADFTLTISSLQPEDFATYYCQQSYSSPLTFGGGTKVEIK
# B12: TCN-523 (5248_A17) (antibody, V domains shown)
# VH: QVQLVQSGAEVKKPGSSVKVSCKASGGSFSNYAFSWVRQAPGQGLEWMGGTIPLLGTTNYAQKFQGRVTISADQFTSTAYMELGSLRSEDTAVYYCTRRKMTTAFDSWGQGTLVTVSS
# VL: QPVLTQPPSASASLGASVTLTCTLSSAYSNYKVDWYQQRPGKGPRFVMRVGTGGIVGSKGDGIPDRFSVLGSGLNRYLTIKNIQEEDESDYHCGADHGSGSNFVSPYVFGGGTKLTVL
# B13: TCN-557 (5081_A04) (antibody, V domains shown)
# VH: QVQLVQSGAEVKKPGASVKVSCKASGHTFTGYYIHWVRQAPGQGLEWMGWINPDSGATSSAQNFQGRVTMTGDTSSSTAYMELSRLSFDDTAVYYCARVLFTSPFDFWGEGTLVTVSS
# VL: QAVVTQEPSLAVSPGGTVTLTCGSSTGAVTRGHYPYWFQQKPGQAPRALIYDSAGNRHSWTPARFSGSLLGGKAALTLSGAQPEDEAEYYCLLSYSGVWVFGGGTKLTVL
# B14: TCN-552 (5249_I23) (antibody, V domains shown)
# VH: QVQVVQSGAEVKKPGSSVRVSCQASGGTFMNYAIIWVRRAPGQGLEWMGGIIPVFPTPNYAQMFQGRVTISTDESRSTSFLELTNLRYEDTAVYYCARRIYHGGNSGFDFWGQGTLVTVSS
# VL: EIVLTQSPATLSLSPGERATLSCRASQSVGNYLAWYQQKPGQAPRLLIYDSSNRAPGIPARFSGSGSGTDFTLTISSLAPEDFAVYYCQQRSKWPPMYSFGHGTKLEIK
# B15: TCN-545 (5082_I15) (antibody, V domains shown)
# VH: QVQLQQWGAGLLKPSETLSLSCAVFGGSFSDYYWTWIRQPPGKGLEWIGEIKHSGRTNYNPSLESRVTISVDTSKNQFSLKLSSVTAADTAIYYCARGTDPDTEGYCRSGSCSAFDFWGQGTLVTVSS
# VL: EIVLTQSPGTLSLSPGERATLSCRASHFVNYRSLAWYQQTPGQVPRLLIYGASTRATGIPDRFSGSGSGTDFTLTISRLEPEDFAVYFCQQYGGSPRYTFGQGTRLEIK
# B16: TCN-534 (5249_B02) (antibody, V domains shown)
# VH: QVQLVQSGAEVKKPGSSVKVSCRESGGTFNGYTITWVRQAPGQGLEWMGGIIPMMGTVNYAQKLQGRVTITTDYFTKTAYMDLNNLRSEDTAMYYCVKIRYTGQQLLWGQGTLVTVSS
# VL: DIQMTQSPSTLSASIGDRVTITCRASQSIASWLAWYQQKPGKAPKLLIYEAVNLESGVPSRFSGSGSGTDFTLTISSLQPDDFATYFCQHYGTISQTFGGGTKVEIK
# B17: TCN-538 (3206_O17) (antibody, V domains shown)
# VH: QITLKESGPTLVKPTQTLTLTCVFSGFSLSITGVRVGWIRQPPGKALEWLALISWDDEKHYSPSLQSRLTITKDTSKNQVVLTMTNLDPVDTATYYCARSTDRGHVLRYFGWMLPGDAFDVWGQGTMVTVSS
# VL: DIVMTQSPDFLPVSLGERATINCKSSQRVLYSSNNKNYLAWYQLKPGQPPKLIIYWASTRESGVPDRFSGSGSGTEFTLTISSLQAEDVAVYYCQQYYSRPYTFGQGTKLEIK
# B18: TCN-536 (5095_N01) (antibody, V domains shown)
# VH: QVQLQQWGAGLLKPSETLSLTCAVYGGSFSVSGYYWSWIRQPPGRGLEWIGEISHGGSTNYNPSLKSRVTISVDTTKNQFSLRLSSVTAADTAVYYCARGTDPDTEVYCRVGNCAAFDYWGQGSLVTVSS
# VL: EIILAQSPGTLSLSPGERATLSCRASQFVSTRSLAWYQQRPGQAPRLLIYGASSRATGIPDRFSGSGSGTDFTLTISRLEPEDFAVYYCQHYGYSPRYAFGQGSKVEIK
# B19: TCN-504 (3251_K17) (antibody, V domains shown)
# VH: QVQLQESGPGLVKPSETLSLTCAVSGVSISNIDFYWGWIRQPPGKGLEWIGNIYYTGITFYNPSLSSRVAISIDTSKNQFSLTLTSVTAADTAMYYCARHYGDSEAINDAFDIWGQGTMLTVSS
# VL: EIVMTQSPATLSVSPGERATLSCRASQSVGNSLAWYQQRPGQAPRLLIYGASTRATGIPPRFSGSGSGTEFTLTISSLQTEDFAVYYCQQYINWRPLSFGGGTKVEIK
# B20: TCN-537 (3194_D21) (antibody, V domains shown)
# VH: QVQLQQWGSGLLKPSETLSLTCAVYGGSFRDDYWTWIRQPPGKGLEWIGEINHSGRTNYNPSLKSRVTISVDTSLKQFSLKVISVTAADTAVYYCARGTSHVSRYFDWLPPTNWFDPWGQGTQVTVSS
# VL: DIVLTQSPGTLSLSPGERATLSCRASQSVSSSYLAWYQQKPGQAPRLVMYGAATRATGIPDRFSGSGSGPDFTLTISRLEPEDFAMYYCQQYGNSPITFGQGTRLEIK
# B21: TCN-535 (5246_P19) (antibody, V domains shown)
# VH: QVQLVQSGSEVKKPGTSVKVSCTASGSVFTNYGISWVRQAPGQGLEWMGGIIPLFGAAKYAQKFQGRVTITADESTKTVYMELSRLTSKDTAIYFCAKAPRVYEYYFDQWGQGTPVTVSS
# VL: EIVLTQSPGTLSLSPGERATLSCRASQSVSSSQLAWYQQKPGQAPRLIIYGASTRATGIPDRFSGSGSGTDFTLTIGRLEPEDFAVFFCQQYSTSPPTFGQGTKVDFK
# B22: TCN-539 (5056_A08) (antibody, V domains shown)
# VH: QVQLVESGGGVVQPGRSLRLSCAASEITFITYAMHWVRQAPGKGLEWVALISDDGSNKFYADSVKGRFTISRDNSKNTLYLQMNSLRAEDTAAYYCAREGVYFDSGTYRGYFDYWGQETLVTVSS
# VL: EIVLTQSPATLSLSPGERATLSCRASQSVSSYLAWYQQKPGQAPRLLIYDASNRATGIPARFSGSGSGTDFTLTISSLEPEDFAVYYCQQRSHWPPITFGQGTRLEIK
# Target: hemagglutinin (HA) of influenza A/Japan/305/57 (H2N2) on whole virions (Influenza A virus A/Japan/305/1957(H2N2), UniProt P03451 16-562)
# Test: ELISA; BCC supernatant on coated inactivated whole virions
row,Binder,ELISA virus binding (OD450)
1,B1,2.54 OD450
2,B2,0.06 OD450
3,B3,2.41 OD450
4,B4,3.62 OD450
5,B5,0.06 OD450
6,B6,0.08 OD450
7,B7,0.07 OD450
8,B8,3.62 OD450
9,B9,0.09 OD450
10,B10,0.08 OD450
11,B11,0.07 OD450
12,B12,1.62 OD450
13,B13,2.7 OD450
14,B14,0.71 OD450
15,B15,0.06 OD450

# Target: hemagglutinin on live influenza A virus, A/California/4/09 H1N1 (Influenza A virus …)
# Test: cell-based or functional assay
row,Binder,% Neutralization
1,B16,96.4%
2,B17,66%
3,B18,18.8%
4,B19,0%
5,B20,71%
6,B21,97.3%
7,B22,0%
